The record followed here is patent US12545899B2, “Luciferase enzymes for use with thermostable luciferins in bioluminescent assays” (Promega Corporation, priority 2018, dated 2026).

To fix the notation:
B1: MK0110: SEQ ID NO: 77; H244W (protein)
chain: MADKNILYGPEPFYPLEDGTAGEQMFDALSRYAAIPGCIALTNAHTKENVLYEEFLKLSCRLAESFKKYGLKQNDTIAVCSENSLQFFLPVIASLYLGIIVAPVNDKYVERELIHSLGIVKPRIVFCSKNTFQKVLNVKSKLKSIETIIILDLNEDLGGYQCLNNFISQNSDSNLDVKKFKPYSFNRDDQVASIMFSSGTTGLPKGVMLTHKNIVARFSIAKDPTFGDAINPTSAILTVIPFHWGFGMMTTLGYFTCGFRVVLMHTFEEKLFLQSLQDYKVESTLLVPTLMAFLAKSALVEKYDFPHLKEIASGGAPLSKEIGEMVKKRFKLNFVRQGYGLTEATSAVLITPKGDAKPGSTGKIVPLHAVKVVDPTTGKILGPNEPGELYFKGPMKMKGYYNNEEATKAIIDNDGWLRSGDIAYYDNDGHFYIVDRLKSLIKYKGYQVAPAEIEGILLQHPYIVDAGVTGIPDEAAGELPAAGVVVQTGKYLNEQIVQDYVASQVSTAKWLRGGVKFLDEIPKGSTGKIDRKVLRQMLEKHTNGHHHHHHHH
B2: MK0119: SEQ ID NO: 86; T344A+I396K+S193A+N228D+L305F+S306P+I109V (protein)
chain: B1 chain with S193A, V348I
B3: MK0123: SEQ ID NO: 90; H244W+T344A+S193A+N228D+L305F+S306P+I109V (protein)
chain: B1 chain with S193A, T342S
B4: MK0121: SEQ ID NO: 88; H244W+T344A+I396K+S193A+N228D+L305F+I109V (protein)
chain: B1 chain with S193A, A316W
B5: MK0113: SEQ ID NO: 80; T344A (protein)
chain: B1 chain with S193A, P306S
B6: MK0118: SEQ ID NO: 85; H244W+T344A+I396K+N228D+L305F+S306P+I109V (protein)
chain: B1 chain with S193A
B7: MK0124: SEQ ID NO: 91; H244W+T344M+I396K+S193A+N228D+L305F+S306P+I109V (protein)
chain: B1 chain with S193A, A344I
B8: MK0120: SEQ ID NO: 87; H244W+T344A+I396K+S193A+N228D+S306P+I109V (protein)
chain: B1 chain with S193A, A316M
B9: MK0115: SEQ ID NO: 82; I396K (protein)
chain: B1 chain with S193A, K396I
B10: MK0116: SEQ ID NO: 83; I396L (protein)
chain: B1 chain with S193A, D228N
B11: MK0117: SEQ ID NO: 84; H244W+T344A+I396K+S193A+N228D+L305F+S306P (protein)
chain: B1 chain with S193A
B12: MK0112: SEQ ID NO: 79; S306P (protein)
chain: B1 chain with S193A, F305L
B13: MK0111: SEQ ID NO: 78; L305F (protein)
chain: B1 chain with S193A, W244H
B14: MK0114: SEQ ID NO: 81; T344M (protein)
chain: B1 chain with S193A, A344T
B15: MK0122: SEQ ID NO: 89; H244W+I396K+S193A+N228D+L305F+S306P+I109V (protein)
chain: B1 chain with S193A, Y339M
B16: MK0158: SEQ ID NO: 123; H244W+S193A+N228D+L305F+S306P+I109V+C38R+F55I+Y108F+A316W+Y339M+T342S+V348I+C257R+T284A+S313T+K353R+D435G (protein)
chain: MADKNILYGPEPFYPLEDGTAGEQMFDALSRYAAIPGRIALTNAHTKENVLYEEILKLSCRLAESFKKYGLKQNDTIAVCSENSLQFFLPVIASLYLGIIVAPVNDKFVERELIHSLGIVKPRIVFCSKNTFQKVLNVKSKLKSIETIIILDLNEDLGGYQCLNNFISQNSDSNLDVKKFKPYSFNRDDQVAAIMFSSGTTGLPKGVMLTHKNIVARFSIAKDPTFGDAINPTSAILTVIPFHWGFGMMTTLGYFTRGFRVVLMHTFEEKLFLQSLQDYKVESTLLVPSLMAFLAKSALVEKYDFPHLKEIATGGWPLSKEIGEMVKKRFKLNFVRQGMGLSETTSAILITPKGDAKPGSTGKIVPLHAVKVVDPTTGKILGPNEPGELYFKGPMIMKGYYNNEEATKAIIDNDGWLRSGDIAYYDNDGHFYIVGRRKSLIKYKGYQVAPAEIEGILLQHPYIVDAGVTGIPDEAAGELPAAGVVVQTGKYLNEQIVQDYVASQVSTAKRLRGGVKFLDEIPKGSTGKIDRKVLRQMLEKHTNGHHHHHHHH
B17: MK0159: SEQ ID NO: 124; H244W+S193A+N228D+L305F+S306P+I109V+C38R+F55I+Y108F+A316W+Y339M+T342S+V348I+T284A+T289S+S313T+W510R (protein)
chain: B16 chain with T284A, K353R

Changes are numbered by the printed parent chain. Names may count otherwise.

One data set in a line: Differential scanning fluorimetry (DSF) analysis. The class given is physicochemical. The following applies: Table 9A. The method in brief:
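Enzymes mixed with Sypro Orange at 5× final, heated 30–95° C at 1° C per minute with fluorescence read every 60 s. Storage buffer 50 mM HEPES pH 7.5, 100 mM NaCl, 2 mM EDTA, or for luciferase variants 20 mM HEPES pH 7.5, 200 mM NaCl, 1 mM EDTA; per-minute fluorescence change plotted against temperature.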
For B1, the “DSF Tm (° C.)” value turned out to be 80 °C.

Take B2: the “DSF Tm (° C.)” value came out at 64 °C.

Consider B3, for which the “DSF Tm (° C.)” value is 72 °C.

Take B4: the “DSF Tm (° C.)” value amounted to 62 °C.

As for B5, the “DSF Tm (° C.)” value is 71 °C.

For the molecule B6, the “DSF Tm (° C.)” value is 63 °C.

For B7, the “DSF Tm (° C.)” value was determined as 70 °C.

For B8, the “DSF Tm (° C.)” value is 62 °C.

For B9, the “DSF Tm (° C.)” value stood at 67 °C.

For B10, the “DSF Tm (° C.)” value was 73 °C.

Consider B11, for which the “DSF Tm (° C.)” value worked out at 63 °C.

Regarding B12, the “DSF Tm (° C.)” value is 80 °C.

In the case of B13, the “DSF Tm (° C.)” value was 79 °C.

Consider B14, for which the “DSF Tm (° C.)” value is 70 °C.

With B15, the “DSF Tm (° C.)” value was determined as 69 °C.

A short description of the next data set: Effect of individual mutations: maximum luminescence with CS0333. Type of data set: biochemical. Conditions: 10 fM to 1 mM CS0333; Detection Reagent (DR) buffer. Here is the method: Experiments were also conducted to evaluate and compare the activities of the various luciferase enzyme variants, including the effects of individual amino acid mutations. To evaluate the effect of individual mutations on luciferase enzyme variants, 0.005 mg/ml luciferase enzyme variant was mixed with 1 mM ATP+10 fM to 1 mM CS0333 in Detection Reagent (DR) buffer.
Regarding B1, the “Vmax (RLU) with CS0333” value is on record as 9,534 RLU.

On to B2, for which the “Vmax (RLU) with CS0333” value is reported as 62,167 RLU.

B3: the “Vmax (RLU) with CS0333” value is reported as 2,841,640 RLU.

For B4, the “Vmax (RLU) with CS0333” value is on record as 2,643,970 RLU.

For the molecule B5, the “Vmax (RLU) with CS0333” value is 1,948 RLU.

With B6, the “Vmax (RLU) with CS0333” value is 3,455,610 RLU.

On to B7, for which the “Vmax (RLU) with CS0333” value is 4,270,690 RLU.

On to B8, for which the “Vmax (RLU) with CS0333” value was 3,192,740 RLU.

As for B9, the “Vmax (RLU) with CS0333” value is 2,120 RLU.

For B10, the “Vmax (RLU) with CS0333” value is 7,428 RLU.

B11: the “Vmax (RLU) with CS0333” value is on record as 3,820,310 RLU.

Take B12: the “Vmax (RLU) with CS0333” value is 1,232 RLU.

On to B13, for which the “Vmax (RLU) with CS0333” value was 1,166 RLU.

Take B14: the “Vmax (RLU) with CS0333” value is 1,030 RLU.

With B15, the “Vmax (RLU) with CS0333” value is reported as 962,171 RLU.

The data set is the same for the next values; noted with them: single point mutation introduced into the Ppe variant; DR buffer.
As for B1, the “improvement of maximum luminescence with CS0333 above background” value is ~5 fold.

The next data set is described as follows: Luminescence at 1 mM D/L-luciferin (Table 11). Conditions: 1 mM substrate; 1 mM ATP; BrightGlo Buffer. Type of data set: biochemical. An excerpt: (§1) Tables 10 and 11 include representative results of kinetic analysis of the thermostable variants with D/L luciferin, CS0333, and CS0280. […] MK0135 and MK0137 have amino acid substitutions that improve thermostability relative to MK0133 and MK0134, respectively, while retaining activity on the luciferin analogs CS0333 and CS0280.
Turning to B16, the “Vmax (RLU) D/L-luciferin BrightGlo Buffer” value was 3,261,120 RLU.

B17: the “Vmax (RLU) D/L-luciferin BrightGlo Buffer” value is recorded as 688,326 RLU.

The data set is the same for the next values; noted with them: 1 mM substrate; 1 mM ATP; Detection Reagent Buffer.
In the case of B16, the “Vmax (RLU) D/L-luciferin Detection Reagent Buffer” value is listed as 1,086,510 RLU.

Take B17: the “Vmax (RLU) D/L-luciferin Detection Reagent Buffer” value is given as 106,195 RLU.

A short description of another data set: Luminescence at 1 mM CS0333 (Table 11). The class given is biochemical. The following applies: 1 mM substrate; 1 mM ATP; BrightGlo Buffer.
Text: as §1
As to B16, the “Vmax (RLU) CS0333 BrightGlo Buffer” value is on record as 4,043,790 RLU.

With B17, the “Vmax (RLU) CS0333 BrightGlo Buffer” value was 6,850,630 RLU.

The same data set, now with this note: 1 mM substrate; 1 mM ATP; Detection Reagent Buffer.
For the molecule B16, the “Vmax (RLU) CS0333 Detection Reagent Buffer” value is recorded as 1,508,370 RLU.

With B17, the “Vmax (RLU) CS0333 Detection Reagent Buffer” value is reported as 4,630,740 RLU.

The next data set can be described thus: Luminescence at 1 mM CS0280 (Table 11). Conditions: 1 mM substrate; 1 mM ATP; BrightGlo Buffer. Type of data set: biochemical.
Text: as §1
As for B16, the “Vmax (RLU) CS0280 BrightGlo Buffer” value is reported as 1,523,240 RLU.

As to B17, the “Vmax (RLU) CS0280 BrightGlo Buffer” value is given as 2,094,150 RLU.

The same data set, now with this note: 1 mM substrate; 1 mM ATP; Detection Reagent Buffer.
As to B16, the “Vmax (RLU) CS0280 Detection Reagent Buffer” value was 41,712 RLU.

B17: the “Vmax (RLU) CS0280 Detection Reagent Buffer” value is listed as 110,050 RLU.

A short description of another data set: Kinetic analysis of thermostable variants with D/L-luciferin (Tables 13, 14). Type of data set: biochemical. The following applies: BrightGlo Buffer, 2 mM ATP.
In the case of B16, the Km is 0.109 µM and the “Vmax (RLU)” value is given as 2,509,334 RLU.

In the case of B17, the Km was determined as 0.107 µM and the “Vmax (RLU)” value is 2,363,790 RLU.

Staying with this data set, now noted: Detection Reagent Buffer, 2 mM ATP.
Consider B16, for which the Km is 0.451 µM and the “Vmax (RLU)” value is given as 365,701 RLU.

Regarding B17, the Km turned out to be 0.444 µM and the “Vmax (RLU)” value is reported as 369,822 RLU.

A further data set in a line: Kinetic analysis of thermostable variants with CS0333 (Tables 13, 14). Type of data set: biochemical. Conditions: BrightGlo Buffer, 2 mM ATP.
Regarding B16, the Km was 14.6 µM and the “Vmax (RLU)” value is recorded as 1,546,728 RLU.

B17: the Km was found to be 14.7 µM and the “Vmax (RLU)” value is 1,528,708 RLU.

The same data set, now with this note: Detection Reagent Buffer, 2 mM ATP.
Regarding B16, the Km was found to be 20.8 µM and the “Vmax (RLU)” value is recorded as 524,381 RLU.

As to B17, the Km stood at 20.9 µM and the “Vmax (RLU)” value is reported as 523,610 RLU.

The nature of the next data set: Kinetic analysis of thermostable variants with CS0280 (Tables 13, 14). Type of data set: biochemical. The following applies: BrightGlo Buffer, 2 mM ATP.
For the molecule B16, the Km turned out to be 2.94 µM and the “Vmax (RLU)” value is 426,927 RLU.

On to B17, for which the Km amounted to 2.78 µM and the “Vmax (RLU)” value was 439,625 RLU.

Still in this data set, the particulars now being: Detection Reagent Buffer, 2 mM ATP.
B16: the Km was determined as 568 µM and the “Vmax (RLU)” value is 39,068 RLU.

As to B17, the Km is 602 µM and the “Vmax (RLU)” value is given as 40,925 RLU.
